According to patent publication US20090291890A1 (published 2009):
Changes are numbered by the printed parent chain. Names may count otherwise. “And” between values parts separate entries of the source, which are not always exact repeats. Identical values can stand only once.

B1: FVIIa variant S222D (enzyme)
chain: ANAFLEELRPGSLERECKEEQCSFEEAREIFKDAERTKLFWISYSDGDQCASSPCQNGGSCKDQLQSYICFCLPAFEGRNCETHKDDQLICVNENGGCEQYCSDHTGTKRSCRCHEGYSLLADGVSCTPTVEYPCGKIPILEKRNASKPQGRIVGGKVCPKGECPWQVLLLVNGAQLCGGTLINTIWVVSAAHCFDKIKNWRNLIAVLGEHDLSEHDGDEQDRRVAQVIIPSTYVPGTTNHDIALLRLHQPVVLTDHVVPLCLPERTFSERTLAFVRFSLVSGWGQLLDRGATALELMVLNVPRLMTQDCLQQSRKVGDSPNITEYMFCAGYSDGSKDSCKGDSGGPHATHYRGTWYLTGIVSWGQGCATVGHFGVYTRVSQYIEWLQKLMRSEPRPGVLLRAPFP
B2: FVIIa variant S222N (enzyme)
chain: B1 chain with D222N
B3: FVIIa variant S222E (enzyme)
chain: B1 chain with D222E
B4: FVIIa variant H216A/H257A (enzyme)
chain: B1 chain with H216A, D222S, H257A
B5: FVIIa variant H216A/S222A (enzyme)
chain: B1 chain with H216A, D222A
B6: FVIIa variant H257S/Q286R (enzyme)
chain: B1 chain with D222S, H257S, Q286R
B7: FVIIa variant H257S/Q366V (enzyme)
chain: B1 chain with D222S, H257S, Q366V
B8: FVIIa variant H257S/Q286R/Q366V (enzyme)
chain: B1 chain with D222S, H257S, Q286R, Q366V
B9: FVIIa variant S222A/H257A/Q286R/Q366V (enzyme)
chain: B1 chain with D222A, H257A, Q286R, Q366V
B10: FVIIa variant Q366V/H373V (enzyme)
chain: B1 chain with D222S, Q366V, H373V
B11: FVIIa variant Q366V/H373L (enzyme)
chain: B1 chain with D222S, Q366V, H373L
B12: FVIIa variant Q286R/H373A (enzyme)
chain: B1 chain with D222S, Q286R, H373A
B13: FVIIa variant S222A/H373A (enzyme)
chain: B1 chain with D222A, H373A
B14: FVIIa variant Q286R/M298Q/K341D (enzyme)
chain: B1 chain with D222S, Q286R, M298Q, K341D
B15: FVIIa variant Q286R/K341D (enzyme)
chain: B1 chain with D222S, Q286R, K341D
B16: FVIIa variant Q286R/Q366D (enzyme)
chain: B1 chain with D222S, Q286R, Q366D
B17: FVIIa variant Q286R/Q366N (enzyme)
chain: B1 chain with D222S, Q286R, Q366N
B18: FVIIa variant Q286R/M298Q/Q366D (enzyme)
chain: B1 chain with D222S, Q286R, M298Q, Q366D
B19: FVIIa variant Q286R/M298Q/Q366N (enzyme)
chain: B1 chain with D222S, Q286R, M298Q, Q366N
B20: FVIIa variant Q286R/H373F (enzyme)
chain: B1 chain with D222S, Q286R, H373F
B21: FVIIa variant Q286R/M298Q/H373F (enzyme)
chain: B1 chain with D222S, Q286R, M298Q, H373F
B22: FVIIa variant M298Q/H373F (enzyme)
chain: B1 chain with D222S, M298Q, H373F
B23: FVIIa variant A51N (enzyme)
chain: B1 chain with A51N, D222S
B24: FVIIa variant S119N/L121S (enzyme)
chain: B1 chain with S119N, L121S, D222S
B25: FVIIa variant P321K (enzyme)
chain: B1 chain with D222S, P321K
B26: FVIIa variant P321E (enzyme)
chain: B1 chain with D222S, P321E
B27: FVIIa variant P321Y (enzyme)
chain: B1 chain with D222S, P321Y
B28: FVIIa variant P321S (enzyme)
chain: B1 chain with D222S, P321S
B29: FVIIa variant T239N (enzyme)
chain: B1 chain with D222S, T239N
B30: FVIIa variant S222A/M298Q (enzyme)
chain: B1 chain with D222A, M298Q
B31: FVIIa variant H257A/M298Q (enzyme)
chain: B1 chain with D222S, H257A, M298Q
B32: FVIIa variant Q286R/Q366V (enzyme)
chain: B1 chain with D222S, Q286R, Q366V

Tests used:
Mesyl-dFPR-ACC = target: T1, Mesyl-dFPR-ACC
T1 sequence (peptide, N-terminal mesyl; D-Phe at position 1 (dF); C-terminal ACC fluorophore): FPR

[1] = target: Factor X (Homo sapiens (Human)) (UniProt P00742)
[2] = target: Factor X (FX) (Homo sapiens (Human)) (UniProt P00742)
Factor X (FX) (Homo sapiens (Human)), sequence (P00742 41-488 limits assumed): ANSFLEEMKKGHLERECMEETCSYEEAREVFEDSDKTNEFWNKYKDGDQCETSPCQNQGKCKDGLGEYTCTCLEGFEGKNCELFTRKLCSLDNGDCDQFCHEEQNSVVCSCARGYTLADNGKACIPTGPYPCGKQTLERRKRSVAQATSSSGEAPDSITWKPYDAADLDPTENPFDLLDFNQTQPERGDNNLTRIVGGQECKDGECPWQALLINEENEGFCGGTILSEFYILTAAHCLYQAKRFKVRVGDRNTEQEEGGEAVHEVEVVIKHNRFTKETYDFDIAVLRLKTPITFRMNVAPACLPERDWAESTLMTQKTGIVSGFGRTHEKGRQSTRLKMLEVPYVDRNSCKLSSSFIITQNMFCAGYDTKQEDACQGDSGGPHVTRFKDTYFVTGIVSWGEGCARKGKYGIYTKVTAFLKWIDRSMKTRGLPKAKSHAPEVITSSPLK

Row | Molecule | kcat/KM, TF-Dependent Indirect Assay [2] [M⁻¹ s⁻¹] | further results
1 | {Gla swap FIX/M19K}/Q286R/M298Q-FVIIa (enzyme) |  | Activity (µmol/sec/µmol), specific activity for mesyl-dFPR-ACC (µmol/sec/µmol) (Mesyl-dFPR-ACC): 1.26; kcat/KM (M^-1s^-1), TF-dependent assay [1]: 1.41e+08 M⁻¹ s⁻¹; kcat/KM, TF-independent assay [1]: 512 M⁻¹ s⁻¹
2 | S52A/S60A/S222A-FVIIa (enzyme) |  | Activity (µmol/sec/µmol), specific activity for mesyl-dFPR-ACC (µmol/sec/µmol) (Mesyl-dFPR-ACC): 1.22; kcat/KM (M^-1s^-1), TF-dependent assay [1]: 3.91e+07 M⁻¹ s⁻¹; kcat/KM, TF-independent assay [1]: 10.2 M⁻¹ s⁻¹ and 19.6 M⁻¹ s⁻¹
3 | Gla swapFIX/Q366V-FVIIa (enzyme) |  | Activity (µmol/sec/µmol), specific activity for mesyl-dFPR-ACC (µmol/sec/µmol) (Mesyl-dFPR-ACC): 2.82; kcat/KM (M^-1s^-1), TF-dependent assay [1]: 9.11e+07 M⁻¹ s⁻¹; kcat/KM, TF-independent assay [1]: 90 M⁻¹ s⁻¹
4 | Gla swap FIX-FVIIa (enzyme) |  | Activity (µmol/sec/µmol), specific activity for mesyl-dFPR-ACC (µmol/sec/µmol) (Mesyl-dFPR-ACC): 1.63; kcat/KM (M^-1s^-1), TF-dependent assay [1]: 5.38e+07 M⁻¹ s⁻¹; kcat/KM, TF-independent assay [1]: 41.3 M⁻¹ s⁻¹
5 | A122N/G124S/A175S/S222A/H257A/Q286R/M298Q-FVIIa (enzyme) |  | Activity (µmol/sec/µmol), specific activity for mesyl-dFPR-ACC (µmol/sec/µmol) (Mesyl-dFPR-ACC): 1.99; kcat/KM, TF-dependent assay [1]: 8.4e+07 M⁻¹ s⁻¹
6 | S52A/S60A/Q286R/M298Q/H373F-FVIIa (enzyme) |  | Activity (µmol/sec/µmol), specific activity for mesyl-dFPR-ACC (µmol/sec/µmol) (Mesyl-dFPR-ACC): 5.02; kcat/KM (M^-1s^-1), TF-dependent assay [1]: 1.77e+08 M⁻¹ s⁻¹; kcat/KM, TF-independent assay [1]: 63.3 M⁻¹ s⁻¹
7 | WT FVIIa (enzyme) |  | Activity (µmol/sec/µmol), specific activity for mesyl-dFPR-ACC (µmol/sec/µmol) (Mesyl-dFPR-ACC): 2.4
8 | WT (NovoSeven®) FVIIa (enzyme) |  | Activity (µmol/sec/µmol), specific activity for mesyl-dFPR-ACC (µmol/sec/µmol) (Mesyl-dFPR-ACC): 2.31
9 | B1 | 5.34e+07 | 
10 | B2 | 6.82e+07 | 
11 | B3 | 5.48e+07 | 
12 | B4 | 6.62e+07 | 
13 | B5 | 5.46e+07 | 
14 | B6 | 3.93e+07 | 
15 | B7 | 6.71e+07 | 
16 | B8 | 1.58e+08 | 
17 | B9 | 1.86e+08 | 
18 | B10 | 1.84e+07 | 
19 | B11 | 3.07e+07 | 
20 | B12 | 5.89e+07 | 

Row | Molecule | kcat/KM, TF-Dependent Indirect Assay [2] [M⁻¹ s⁻¹] | further results
21 | B13 | 3.64e+07 | 
22 | B14 | 1.18e+07 | 
23 | B15 | 1.11e+07 | 
24 | B16 | 1.53e+07 | 
25 | B17 | 5.42e+07 | 
26 | B18 | 1.91e+07 | 
27 | B19 | 1.04e+08 | 
28 | B20 | 9.08e+07 | 
29 | B21 | 1.51e+08 | 
30 | B22 | 8.49e+07 | 
31 | B23 | 1.02e+08 | 
32 | B24 | 5.75e+07 | 
33 | B25 | 3.43e+07 | 
34 | B26 | 5.59e+07 | 
35 | B27 | 4.48e+07 | 
36 | B28 | 5.53e+07 | 
37 | B29 | 1.64e+07 | 
38 | B30 | 7.13e+07 | 
39 | B31 | 1.28e+08 | 
40 | B32 | 7.92e+07 | 
